These results are taken from patent US12331106B2, “Anti-angiopoietin-2 antibodies that induce Tie2 activation” (Institute for Basic Science, priority 2018, dated 2025).

Assay [1] has as its system downstream signaling of the Tie2 receptor (Akt phosphorylation) in HUVECs. The assay can be described thus: Akt phosphorylation in HUVECs by mouse anti-Ang2 antibodies plus hAng2 (immunoblot). Type of assay: cell-based, human. The following applies: serum-starved HUVECs; antibody combined with hAng2 1 μg/ml; 30 min. The method, then:
To investigate whether the mouse anti-Ang2 antibodies induce the downstream signaling of the Tie2 receptor in endothelial cells, HUVECs (LONZA™) were treated with a combination of hAng2 protein and anti-Ang2 antibody, and then the level of Akt phosphorylation, the main downstream signaling protein of Tie2 receptor, was analyzed by immunoblotting. As a negative control group, the full-length hAng2 (R&D® Systems) alone was treated into the cells.
Specifically, HUVECs (1×10^5 cells/ml) were cultured in EGM-2 medium (LONZA™) at 37° C. in a 60 mm culture dish. Cells (90% confluency) were incubated with serum-free EBM-2 medium for 4 hrs for serum starvation. The serum-starved HUVECs were treated with a mixture of anti-Ang2 antibody and hAng2 protein (1 μg/ml, R&D® Systems) and further incubated for 30 min. The cells were washed with cold PBS, treated with lysis buffer, and lysed at 4° C. for 20 min. Then, the cell lysates were prepared by centrifugation at 13000 rpm for 15 min. 5× SDS sample buffer was added to the cell lysate and the cell lysate was boiled at 95° C. for 5 min. Then, the cell lysate was subjected to SDS PAGE and proteins were transferred to a nitrocellulose membrane (GE).
To investigate Akt phosphorylation, the blot was blocked with 5% skim milk-containing TBS-T for 1 hr at room temperature (RT), and incubated with anti-phospho-Akt antibody (S473) at 4° C. for about 8 hrs. The amount of phospho-Akt was visualized by an enhanced chemiluminescence (ECL). Then, the membrane was incubated in a stripping buffer (Thermo) for 15 min, and then reprobed with an anti-Akt antibody to determine the amount of total Akt.
On the technique in general: In western blotting, separated proteins are transferred to a membrane and probed.

The target in assay [2] is T1, hAng2 (Homo sapiens, UniProt O15123).
T1 sequence (O15123 19-496): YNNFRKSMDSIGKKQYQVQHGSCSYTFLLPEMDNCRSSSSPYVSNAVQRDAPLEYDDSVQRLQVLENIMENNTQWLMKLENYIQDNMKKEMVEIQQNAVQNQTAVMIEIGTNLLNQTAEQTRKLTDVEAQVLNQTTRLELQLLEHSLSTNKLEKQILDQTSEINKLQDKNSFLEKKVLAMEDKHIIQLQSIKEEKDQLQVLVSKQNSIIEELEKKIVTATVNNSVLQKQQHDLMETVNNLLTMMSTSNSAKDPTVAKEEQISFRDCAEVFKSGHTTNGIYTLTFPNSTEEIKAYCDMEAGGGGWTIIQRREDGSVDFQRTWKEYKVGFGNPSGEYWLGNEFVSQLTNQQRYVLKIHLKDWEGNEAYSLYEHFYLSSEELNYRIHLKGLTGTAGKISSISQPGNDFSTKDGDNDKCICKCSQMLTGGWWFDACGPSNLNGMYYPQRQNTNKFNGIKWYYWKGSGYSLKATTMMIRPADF
Description: OCTET affinity of mouse monoclonal anti-Ang2 antibodies against hAng2. Particulars: hAng2 fixed on AR2G biosensor, 1:1 binding model. The method, then:
The affinity of mouse monoclonal antibody against hAng2 was measured using OCTET® system (ForteBio, real-time, label-free bio-layer interferometry system for determination of affinity, kinetics, and concentration). Specifically, buffer and samples were measured in total 200 μl/well using Black 96-well plates (96 well F-type black plates, Greiner). The biosensor used for affinity measurements was hydrated for 10 min before measurement with AR2G tip (ForteBio OCTET®). After the hydration, hAng2 was diluted in 10 mM sodium acetate, pH 6.0 buffer at a concentration of 10 μg/ml, fixed on AR2G biosensor, and blocked with 1M ethanolamine. The mouse monoclonal anti-Ang2 antibodies were diluted to 50, 25, 12.5, 6.25, 3.125, and 0 nM with 1× kinetic buffer, and subjected to association for 300 seconds and dissociation for 900 seconds. For affinity measurement (KD), the association rate (K-on) and dissociation rate (K-off) were analyzed by binding curve (global) and fitted to 1:1 binding model using OCTET® data analysis v9.0.0.10 program.

For assay [3], the target named is T1, hAng2. The assay can be described thus: OCTET affinity of humanized anti-Ang2 antibodies against hAng2. In kind it is binding. Particulars: humanized 4B9 antibodies (IgG1) fixed on AR2G biosensor; hAng2 50-0 nM.

B1: 2F10: mouse monoclonal anti-Ang2 antibody; VH SEQ ID NO: 29, VL SEQ ID NO: 31 (antibody, V domains shown)
VH: QVQLVESGGGLVKPGGSLKLSCAASGFTFSDYYMYWIRQTPEKRLEWVATINDGGSYTYYPDSVKGRFTISRDNAKNNLYLQMSSLKSEDTAMYYCARDWGLRPWFVYWGQGTLVTVSA
VL: DIVMTQSHKFMSTSVGDRVSITCKASQDVSTAVAWYQQKPGQSPKLLIYWASTRHTGVPDRFTGSGSGTDYTLTISSVQAEDLALYYCQQHYTTPPTFGSGTKLEIK
modifications: Heavy Chain Variable Region; Light Chain Variable Region
With B1, in assay [1], the “Akt phosphorylation at S473” value was “strongly induced”. In assay [2], the “Koff” value was found to be 1.71e-05 s⁻¹ and the “Kon” value is 124000 M⁻¹ s⁻¹.

B2: 4E2: mouse monoclonal anti-Ang2 antibody; VH SEQ ID NO: 39, VL SEQ ID NO: 41 (antibody, V domains shown)
VH: EVQLQQSGPELEKPGASVKISCKASGYSFTGYNMNWVKQSNGKSLEWIGNIDPYYGGTSYNQKFKGKATLTVDKSSSTAYMQLKSLTSEDSAVYYCVRYGNYVDYWGQGTTLTVSS
VL: DIVMTQSHKFMSTSVGDRVSITCKASQDVSTAVAWYQQKPGQSPKLLIYWASTRHTGVPDRFTGSGSGTDYTLTISSVQAEDLALYYCQQHYNTPPTFGSGTKLEIK
modifications: Heavy Chain Variable Region; Light Chain Variable Region
Take B2: in assay [1], the “Akt phosphorylation at S473” value is reported as “strongly induced”. For the same molecule, in assay [2], the “Koff” value is 0.000134 s⁻¹ and the “Kon” value is 28300 M⁻¹ s⁻¹.

B3: 4B9H21: humanized anti-Ang2 human IgG1 antibody from mouse 4B9; VH SEQ ID NO: 47, VL SEQ ID NO: 48 (antibody, V domains shown)
VH: QVQLVESGGGLVKPGGSLRLSCAASGFTFSDYYMYWVRQAPGKGLEWVSTISVGGSFTYYPDSVKGRFTISRDNAKNSLYLQMNSLRAEDTAVYYCARDWGLRPWFVYWGQGTLVTVSS
VL: DIQMTQSPSSLSASVGDRVTITCKASQDVSTAVAWYQQKPGKAPKLLIYWASTRHTGVPSRFSGSGSGTDFTLTISSLQPEDFATYYCQQHYSTPPTFGQGTKVEIK
modifications: human IgG1 constant regions; VH; VL
On to B3, for which, in assay [3], the “Kdis” value came out at 8.94e-06 s⁻¹ and the “Kon” value is 73700 M⁻¹ s⁻¹.

B4: 4B9H31: humanized anti-Ang2 human IgG1 antibody from mouse 4B9; VH SEQ ID NO: 51, VL SEQ ID NO: 52 (antibody, V domains shown)
VH: QVQLVESGGGLVKPGGSLRLSCAASGFTFSDYYMYWVRQAPGKGLEWVATISVGGSFTYYPDSVKGRFTISRDNAKNSLYLQMNSLRAEDTAVYYCARDWGLRPWFVYWGQGTLVTVSS
VL: DIQMTQSPSSLSASVGDRVTITCKASQDVSTAVAWYQQKPGKAPKLLIYWASTRHTGVPSRFSGSGSGTDFTLTISSLQPEDFATYYCQQHYSTPPTFGQGTKVEIK
modifications: human IgG1 constant regions; VH; VL
Turning to B4, in assay [3], the “Kdis” value stood at 1.56e-05 s⁻¹ and the “Kon” value came to 93900 M⁻¹ s⁻¹.
